Patent US20250186623A1, “EXPRESSION SYSTEM FOR THE TREATMENT OF CANCER” (FUNDACION PARA LA INVESTIGACION MEDICA APLICADA, priority 2022, published 2025)

Assays:
[1] = test system: B16 cells transduced with AAV8-ISREx4-LucmiR122T; test: Radiation and IFN signaling on activation of the ISREx4 promoter (luciferase); assay type: cell-based, murine
From the text: The ISREx4 promoter responds to interferon downstream signaling.

[2] = test system: human HEK293T cells stably expressing hSTINGmut; test: Luciferase activity under synthetic promoters (pGL3-basic plasmids); assay type: cell-based; conditions: for luciferase activity / inducibility upon DMXAA: DMXAA 50 μg/mL, 48 h; for leakage in the absence of DMXAA: vehicle
From the text: (§1) As described above, the specificity of the promoters used in the previous experiments was somewhat poor. […] In order to achieve this, synthetic promoters have been generated.
(§2) Seven different promoters were generated, namely short STATx4 (4 STAT motifs separated by 6 nucleotides according to SEQ ID NO: 26), IRSF3×4 (4 IRSF3 motifs separated by 20 nucleotides according to SEQ ID NO: 27), short IRSF3×4 (4 IRSF3 motifs separated by 6 nucleotides according to SEQ ID NO: 28), ISREx4 (4 ISRE motifs separated by 20 nucleotides according to SEQ ID NO: 12), short ISREx4 (4 ISRE motifs separated by 6 nucleotides according to SEQ ID NO: 13), NFκBx4 (4 NFκB motifs separated by 20 nucleotides according to SEQ ID NO: 29) and short NFκBx4 (4 NFκB motifs separated by 6 nucleotides according to SEQ ID NO: 30). […] In addition, a plasmid containing the luciferase sequence under the control of the murine IFN-β-promoter (mIFN-β) and a plasmid containing the luciferase sequence under the control of CXCL10-promoter were used as controls. Either MC38 cells or human HEK293T cells, both which stably expressed hSTINGmut as described above (example 1), were transfected with the indicated plasmids using Lipofectamine3000 according to the manufacturers protocol, whereas a negative control was mock-transfected (Basic).

[3] = test system: MC38 cell lines stably expressing hSTINGmut; test: Luciferase activity under modified IFN-β promoters; assay type: cell-based, murine
From the text: Therefore, the objective of this experiment was to examine the specificity of different modified IFN-β promoters in their response to DMXAA-induced STING activity.
To this end, five different modifications of the IFN-β promoter (short IFN-β A according to SEQ ID NO: 18, short IFN-β B according to SEQ ID NO: 19, short IFN-β C according to SEQ ID NO: 20, short IFN-β D according to SEQ ID NO: 21, short IFN-β E according to SEQ ID NO: 22) were designed. Lentiviral vectors encoding luciferase under the control of these five different promoters were constructed. […] After another 3 h (FIG. 3A) or 3 and 6 h (FIGS. 3B, 3C, 3D) or 6 h (FIGS. 3E, 3F, 3G and 3H), cells were homogenized in 50 μL of Passive Lysis Buffer (Promega) and frozen in dry ice. After 3 cycles of thaw-vortex-freeze to ensure lysis, cells were spun at 12000 g for 2 min at 4° C. 20 μL were added to a luminometer 96-well plate and luciferase activity was determined using the respective substrates D-Luciferin and Coelenterazine.

[4] = test system: MC38 cells stably expressing hSTINGmut; test: Luciferase activity under synthetic promoters (pGL3-basic plasmids); assay type: cell-based, murine; conditions: DMXAA 50 μg/mL, 48 h
From the text: as §1, §2

[5] = test system: MC38 cell lines stably expressing hSTINGmut; test: Luciferase activity under chemokine promoters; assay type: cell-based, murine; conditions: for luciferase activity upon DMXAA administration: DMXAA 50 μg/mL, 3 or 6 h; for luciferase activity in the absence of DMXAA (leaky expression): vehicle
From the text: Therefore, the objective of this experiment was to examine the specificity of these promoters in their response to DMXAA-induced STING activity.
The CXCL9-promoter (CXCL9 according to SEQ ID NO: 23) and the CXCL10-promoter (CXCL10 according to SEQ ID NO: 24) were used for the following experiment. To this end, lentiviral vectors encoding luciferase under the control of these two different promoters were constructed. […] In addition, the lentiviral vectors encoding the short IFN-β A promoter, the short IFN-β B promoter, the short IFN-β C promoter described in experiment 1 were used as a comparison. […] After another 3 or 6 h, cells were harvested and luciferase activity measured as described in experiment 1.

[6] = test system: MC38 cell lines stably expressing hSTINGmut; test: scIL-12 mRNA (qPCR) and secreted protein (ELISA) under STING-activity dependent promoters; assay type: cell-based, murine; conditions: for scIL-12 mRNA or protein expression upon DMXAA treatment: DMXAA 50 μg/mL
From the text: The CXCL9-promoter and the CXCL10-promoter from experiment 2, and a full length IFN-β-promoter (IFN-β according to SEQ ID NO: 25) were used for the following experiment. To this end, lentiviral vectors encoding murine scIL-12 under the control of these three different promoters were constructed. […] After the indicated time points, cells were harvested. The cell lysate was used to measure scIL-12 mRNA expression by qPCR as described before (example 1, experiment 1), whereas the supernatant was used to measure secreted scIL-12 protein in NUNC MaxiSorp flat-bottom 96-well plates using an ELISA assay kit (OptEIA, Mouse IL-12 (p70), BD Biosciences, San Diego, CA USA), following manufacturer's instructions.

[7] = 1,000 IU interferon alone (0 Gy)
[8] = 1,000 IU interferon together with radiation (8 Gy)

For IFN-α, the luciferase activity [1, 7] was “significantly increased luciferase activity” and the luciferase activity [1, 8] was “induced luciferase activity dramatically”.

B1: ISREx4-promoter: 4 ISRE motifs separated by 20 nucleotides according to SEQ ID NO: 12 (nucleic acid)
DNA: ATCTCTGCGATGAACCTCACAGTTTCGCTTTCTATCTCTGCGATGAACCTCACAGTTTCGCTTTCTATCTCTGCGATGAACCTCACAGTTTCGCTTTCTATCTCTGCGATGAACCTCACAGTTTCGCTTTCTGTGCCTCTTATGATCTGGATCTCGAGCCATGGTCGAGGCCTGTAGGCGTGTACGGTGGGAGGCTTATATAAGCAGAGCTC
modifications: misc_feature 1..212 ISREx4
B1 was tested, and the “luciferase activity / inducibility upon DMXAA” value [2] was “highest inducibility” and the “leakage in the absence of DMXAA” value [2] was “undetectable leakage”.

B2: short IFN-β A promoter: modification of the IFN-β promoter according to SEQ ID NO: 18 (nucleic acid)
DNA: CAGGAGCTTGAATAAAATGAATATTAGAAGCTGTTAGAATAAGAGAAAATGACAGAGGAAAACTGAAAGGGAGAACTGAAAGTGGGAAATTCCTCTGAGGCAGAAAGGACCATCCCTTATAAATAGCACAGGCCATGAAGGAAGATCATTCTCACTGCAGCCTTTGACAGCCTTTGCCTCATCTTGCAGGTAGCAGCCGACACCAGCCTGGCTTCCATC
modifications: misc_feature 1..219 short IFNb A-promoter
With B2 the “luciferase activity upon DMXAA treatment” value ([3]; DMXAA 50 μg/mL, 3 h) was “highest luciferase activity” and the “luciferase activity in the absence of DMXAA (leaky expression)” value (from here on “luciferase activity in the absence”) ([3]; vehicle) was “significant luciferase activity”.

B3: short STAT-promoter: 4 STAT motifs separated by 6 nucleotides according to SEQ ID NO: 26 (nucleic acid)
DNA: ATCTCTGCGATGAACCTCACTTCGCTAGAAATCTCTGCGATGAACCTCACTTCGCTAGAAATATCTCTGCGATGAACCTCACTTCGCTAGAAATCTCTGCGATGAACCTCACTTCGCTAGAAGTGCCTCTTATGATCTGGATCTCGAGCCATGGTCGAGGCCTGTAGGCGTGTACGGTGGGAGGCTTATATAAGCAGAGCTC
modifications: misc_feature 1..202 STATx4
With B3 the “luciferase activity / inducibility upon DMXAA” value [4] was “poor inducibility”.

B4: CXCL10-promoter: CXCL10-promoter according to SEQ ID NO: 24 (nucleic acid, listed as Mus musculus)
DNA: TCTAACTGTTCACTAAGTTGTATAGACTTTGGATCTGGCTAAATTTGGCGTGTGATTTTTTTTTAAAGTTTATTCCAAGTATTTTATAATAAAGCATATGAAGTAAAAAGCAAAAATAAACAGTGTAAACACAACAAATGTAAAAACCATGGTTAGAACCTGACTTAGATATCAGTTCTGTGTTTTATTTATGAGAGAAGGAAGATGAGAATTAAAGCCATTTCCAGACTTATTCTGCAAGGCACTGCATCTGATTTCTCAAACAGCTCACGCTTTGGAAAGTGAAACTTACCTCACTCGTTAAAAATTAAAAGGAGCACAAGAGGGGAGAGGGAAATTCCAAGTTCATGGGTCACAATAAACACAAGCAATGCCCTCGGTTTACAGGGGACTTCCCTCGGGTTGCGGAGCCTTGCTGAGTCATCTCCAAAGTCAGCCAATCAGGACTCAGGGAGGGAAACTCTTTGCAGATAAATACTCCTCAGCAGCCGGCACTCGAGAAGCGCTTCATCCACCGCTGAGAGACATCCCGAGCCAACCTTCCGGAAGCCTCCCCATCAGCACC
modifications: misc_feature 1..565 CXCL10-promoter
In the case of B4, the “luciferase activity / inducibility upon DMXAA” value [2] is reported as “highest inducibility”, the “leakage in the absence of DMXAA” value [2] is reported as “considerable leakage” and the “luciferase activity upon DMXAA administration” value [5] is reported as “significantly higher luciferase activities”. The “luciferase activity in the absence” value [5] was “significant luciferase activity”, the “scIL-12 mRNA or protein expression upon DMXAA treatment” value [6] was “highly upregulated” and the “scIL-12 production in the absence of DMXAA (leakage)” value ([6]; vehicle) was “significant leakage”.

B5: CXCL9-promoter: CXCL9-promoter according to SEQ ID NO: 23 (nucleic acid, listed as Mus musculus)
DNA: GACACAGACATCTCGTGAAACATCTGGAAAAGGTAGCAGGGAACGGGACAGCAGTAGCTTATGCAACTAATCTAGCAATTACAATGATAGGAAACTGTAGCCACGGTGAGACGAAATGGATTTACCCTCAACAAATTAAGAAGCTTTGACTTGTGAGGAAAGGCAGTTTGAGTCGCCATATAGTGTCATGTCCCACGTGGGAAGTACATCTCCAACCTTCATTGTACAACATTAATATAGTCATTGTATAATCTATTCCACATCCAGGTAGCAACTTTGCCTGGGGGTGGTTTCACATCCCTTACTATAAACTCCCCGTTTATGTGAAATGGAAGTAGAACATGCAGAAATTCCCTGGGATCTGAGAGTAGGGTTTTCCCCAGGACGATCAATTTGTGGTTAGTTTAGTTCTTCTAGGTCAGCTGAGGAGACCAGCCAATCAGAGACGGGAAGGAAAAGGGATTTCCTAAATAAATATGATCCCCAAGAACATGCTCTCTAAAGACATTCTCGGACTTCACTCCAACACAGTGACTCAATAGAACTCAGCTCTGCC
modifications: misc_feature 1..556 CXCL9-promoter
For B5, the “luciferase activity upon DMXAA administration” value [5] was “significantly higher luciferase activities”, the “luciferase activity in the absence” value [5] was “significant luciferase activity” and the “scIL-12 mRNA or protein expression upon DMXAA treatment” value [6] was “poor”.

B6: IFN-γ: exogenously added interferon, 1,000 IU (protein, UniProt P01579 24-161, looked up)
Interferon gamma: QDPYVKEAENLKKYFNAGHSDVADNGTLFLGILKNWKEESDRKIMQSQIVSFYFKLFKNFKDDQSIQKSVETIKEDMNVKFFNSNKKKRDDFEKLTNYSVTDLNVQRKAIHELIQVMAELSPAAKTGKRKRSQMLFRG
In the case of B6, the luciferase activity [1, 7] is reported as “significantly increased luciferase activity” and the luciferase activity [1, 8] is reported as “induced luciferase activity dramatically”.

B7: IFN-β-promoter: full length IFN-β-promoter according to SEQ ID NO: 25 (nucleic acid, listed as Mus musculus)
DNA: CCAGGATGTGGGGTTCTCTCCCAAAGGGAGCTATGGCCCATTGATGTGCCATTTCTCTTATAGTACACTATTGTAAGCCCCCTGGGAGCTCACAGAGACCCTCTCCCACCATCCCACTATTTCAAAGGGCAGCAGCTGTGCCATCCTTTCAGGATGAGCAGCTACTCTGCCTGGCTTTTCAGTGGACACTTTGGCTGTTTGAGAGTTCTTTTATCTTCAGGGCTGTCTCCTTTCTGTTCTTCTCTCCTGGATATTTCTCTTCCTTTGCTCCAGCAATTGGTGAAACTGTACAAGATTTTATAAATCCTTAGTTTGTATATATTTTAACCCAGTACATAGCATATAAAATAGCCAGGAGCTTGAATAAAATGAATATTAGAAGCTGTTAGAATAAGAGAAAATGACAGAGGAAAACTGAAAGGGAGAACTGAAAGTGGGAAATTCCTCTGAGGCAGAAAGGACCATCCCTTATAAATAGCACAGGCCATGAAGGAAGATCATTCTCACTGCAGCCTTTGACAGCCTTTGCCTCATCTTGCAGGTAGCAGCCGACACCAGCCTGGCTTCCATC
modifications: misc_feature 1..571 IFNb1-promoter
In the case of B7, the “scIL-12 mRNA or protein expression upon DMXAA treatment” value [6] is reported as “poor”.
